From publication PMC2175199 (The Journal of Cell Biology, 2000)

T1: XSA2 (Xenopus laevis (endogenous in egg …, UniProt Q9DGN0 1-1194))
T1 sequence: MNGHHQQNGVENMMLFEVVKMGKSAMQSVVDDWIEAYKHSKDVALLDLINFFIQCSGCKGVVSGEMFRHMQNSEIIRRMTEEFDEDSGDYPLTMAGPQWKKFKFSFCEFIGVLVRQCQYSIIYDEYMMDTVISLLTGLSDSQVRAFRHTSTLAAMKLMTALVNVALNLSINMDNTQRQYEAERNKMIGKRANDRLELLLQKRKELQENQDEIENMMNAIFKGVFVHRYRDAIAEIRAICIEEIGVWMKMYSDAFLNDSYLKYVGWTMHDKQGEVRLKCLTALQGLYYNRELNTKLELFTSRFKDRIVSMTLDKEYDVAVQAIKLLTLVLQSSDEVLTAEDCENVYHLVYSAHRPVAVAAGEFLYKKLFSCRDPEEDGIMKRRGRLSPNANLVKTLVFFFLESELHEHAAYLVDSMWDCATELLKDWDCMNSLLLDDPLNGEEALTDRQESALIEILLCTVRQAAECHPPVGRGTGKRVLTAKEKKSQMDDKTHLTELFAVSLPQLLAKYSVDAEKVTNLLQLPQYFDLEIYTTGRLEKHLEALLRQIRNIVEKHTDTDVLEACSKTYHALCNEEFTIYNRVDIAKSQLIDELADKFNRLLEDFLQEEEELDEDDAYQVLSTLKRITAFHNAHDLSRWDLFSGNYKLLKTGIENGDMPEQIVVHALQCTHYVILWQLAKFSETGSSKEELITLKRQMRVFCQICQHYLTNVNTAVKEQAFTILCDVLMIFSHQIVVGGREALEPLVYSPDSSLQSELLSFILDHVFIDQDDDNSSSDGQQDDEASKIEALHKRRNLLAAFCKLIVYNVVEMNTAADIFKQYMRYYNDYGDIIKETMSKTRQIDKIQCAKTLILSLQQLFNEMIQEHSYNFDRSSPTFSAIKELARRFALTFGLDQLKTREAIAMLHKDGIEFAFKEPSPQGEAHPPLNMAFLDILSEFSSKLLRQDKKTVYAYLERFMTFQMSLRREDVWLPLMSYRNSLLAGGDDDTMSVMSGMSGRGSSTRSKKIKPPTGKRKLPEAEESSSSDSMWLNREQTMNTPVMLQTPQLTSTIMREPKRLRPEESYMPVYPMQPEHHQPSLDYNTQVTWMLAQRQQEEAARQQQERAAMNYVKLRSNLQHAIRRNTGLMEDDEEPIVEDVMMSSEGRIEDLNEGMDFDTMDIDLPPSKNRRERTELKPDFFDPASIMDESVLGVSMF


Target: T1, XSA2
Test: co-IP

Binder | percent depleted from the extract by anti-XSA2 [%]
XSMC1 (natural protein) MGFLKLIEIENFKSYKGRQIIGPFHRFTAIIGPNGSGKSNLMDAISFVLGEKTSNLRVKTLRDLIHGAPVGKPAANRAFVSMVYSEDSGEEKVFSRVIVGGSSEYKINNKVVQLSEYSDSLEKLGILIKARNFLVFQGAVESIAMKNPKERTALFEEISRSGELAQEYDKRKKEMVKAEEDTQFNYHRKKNIAAERKEAKQEKEEAERYQRLKDEVARAQIQLQLFKLYHNESEIEKLNKELSVKNKGIEKDKKHMDKVEEELKDKKKELGKMMREQQAIEKEIKEKDAELNQKLPQYIKAKENPSHKIKKFRAAKKSLQNAQKQYKKRKADMDELEKEMLSVEKARQEFEERMEEESQSQGRDLTLEENQVKKYHRLKEEASKRAATLAQELEKFNRDQKADQDRLDLEERKKVETEAKIKQKLRELEENQKRIEKLEEYIATSKQSLEEQKNLEETLTEEVEMAKRRIDEINSELNQVMEQLGDARIDRQESSRQQRKAEIMESIKRLYPGSVYGRLIDLCQPTQKKYQIAVTKVLGKNMDAIIVDSEKTGRDCIQYIKEQRGEPETFLPLDYLEVKPTDERLRELKGAKLVIDVIRYEPPHIKKALQYACGNALVCDNVEDARRIAFGGHQRHKTVALDGTLFQKSGVISGGASDLKAKARRWDEKAVDKLKEKKERLTEELKEQMKAKRKEAELRQVQSQAHGLQMRLKYSQSDLEQTKTRHLAMNMQEKSKLESELANFSPRINDIKRIIQSRDREMKDLKEKMNQVEDEVFEEFCREIGVRNIREFEEEKVKRQNEIAKKRLEFENQKTRLGIQLDYEKNQLKEDQGKVQTWEQSVKKDDNEIEKLKKEEQRHMKIIDETMAQLQDLKNQHLAKKSEVNDKNHLMEDIRKKLGSANKEVTHLQKEVTAIETKLEQKRSDRHNLLQACKMSDIKLPLSKGTMDDISQEEGSSQGEESASSSQRSSTVYAKEALIEIDYSDLSEDLKDAVADDDIKQEMSALHQKINEQQSILQRISAPNMKAMEKLESVRDKFQETSDEFEAARKRAKKAKQAFEQTKKERFDRFNACFESVATNIDEIYKALSRNSSAQAFLGPENPEEPYLDGINYNCVAPGKRFRPMDNLSGGEKTVAALALLFAIHSYKPSPFFVLDEIDAALDNTNIGKVANYIKEQSMSNFQAIVISLKEEFYTKAESLIGVYPEQGDCVISKVLTFDLTKYPDANPNPND | ~5
XSMC3 (natural protein) MYIKQVIIQGFRSYRDQTIVDPFSSKHNVIVGRNGSGKSNFFYAIQFVLSDEFSHLRPEQRLALLHEGTGPRVISAFVEIIFDNSDNRLPIDKEEVSLRRVIGAKKDQYFLDKKMVTKNDVMNLLESAGFSRSNPYYIVKQGKINQMATAPDSQRLKLLREVAGTRVYDERKEESISLMKETEGKRDKINELLKYIEERLHTLEEEKEELAQYQKWDKMRRALEYTIYNQELNETRAKLDELSSKRETSGEKSRQLRDAQQDARDKMEEIERQVRELKSKISAMKEEKEQLSSERQEQIKQRTKLELKTKDLQDELAGNSEQRKRLLKERQKLLEKIEEKQKELAETEPKFSSVKQKEESGIARLAQATQERTDLYAKQGRGSQFTSKEERDKWIKKELKSLDQAINDKKRQIAAINKDLEETEVNKEKNLEQYTKLDQDLNEVKTRVEELDKKYYEVKNKKDELQSERNYLWREENAEQQSLAAKREDLEKKQQLLRAATGKAILNGIDSINKVLEHFRRKGINQHVINGYHGIVMNNFDCEPAFYTCVEVTAGNRLFYHIVESDEVSTKILMEFNKMNLPGEVTFLPLNKLDVRDTAYPETNDAIPMISKLRYNLRFDKAFKHVFGKTLICRSMEVSTQLARAFTMDCITLEGDQVSHRGALTGGYYDTRKSRLELQKDVRKVEDELHALEAKLNENLRRNIERINNEIDQLMNQMQQIETQQRKFKASRDSILSEMKMLKEKRQQSEKTFMPKQRSLQSLEASLHAMESTRESLKAELGTDLLSQLSLEDQKRVDALNDEIRQLQQENRQLLNERIKLEGTITRVETYLNENLRKRLDQVEQELNELRETEGGTVLTATTSELEAINKRVKDTLARSEGLDITIDKTEVESKDLVKSMDRWKNMEKDHMDAINHDTKELEKMTNRQGMLLKKKEECMKKIRELGSLPQEAFEKYQTLSLKQLFRKLEQCNTELKKYSHVNKKALDQFVNFSEQKEKLIKRQEELDRGHKSIMELMNVLELRKYEAIQLTFKQVSKNFSEVFQKLVPGGKATLVMKKGDVEGSQSQDEGEGSTQSSVPSVDQFTGVGIRVSFTGKQAEMREMQQLSGGQKSLVALALIFAIQKCDPAPFYLFDEIDQALDAQHRKAVSDMIMELASHAQFITTTFRPELLESADKFYGVKFRNKVSHIDVITAEQAKDFVEDDTTHG | ~5
